Results as given in patent US20140178390A1 (published 2014).

Target: Human CXCR7 (UniProt P25106 1-362)
Assay: FACS competition with biotinylated SDF-1

Chain of Human CXCR7 (P25106 whole entry): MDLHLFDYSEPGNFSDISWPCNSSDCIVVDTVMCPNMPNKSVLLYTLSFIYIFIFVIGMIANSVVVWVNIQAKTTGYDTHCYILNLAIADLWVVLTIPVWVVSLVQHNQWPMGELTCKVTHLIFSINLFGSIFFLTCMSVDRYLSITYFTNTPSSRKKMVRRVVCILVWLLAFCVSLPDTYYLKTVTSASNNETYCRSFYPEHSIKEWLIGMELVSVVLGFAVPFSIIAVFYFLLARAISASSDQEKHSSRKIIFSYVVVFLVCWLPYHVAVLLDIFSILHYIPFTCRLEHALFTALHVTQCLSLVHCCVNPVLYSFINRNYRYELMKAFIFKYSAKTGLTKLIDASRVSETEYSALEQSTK

B1: Nanobody 07C03 with Tag-1 (VHH)
VHH: EVQLVESGGGLVQAGESLTLSCAASGRTLSAYIMGWFRQAPGKEREFVAGIWSGGYTHLADSAKGRFSISRDNAKNTVYLQMNGLKPEDTAVYYCAAGLRGRQYSNWGQGTQVTVSS
- IC50: 7.77 nM
